T1: RNA polymerase I subunit A135 (Saccharomyces cerevisiae, UniProt P22138 1-1203)
T1 sequence: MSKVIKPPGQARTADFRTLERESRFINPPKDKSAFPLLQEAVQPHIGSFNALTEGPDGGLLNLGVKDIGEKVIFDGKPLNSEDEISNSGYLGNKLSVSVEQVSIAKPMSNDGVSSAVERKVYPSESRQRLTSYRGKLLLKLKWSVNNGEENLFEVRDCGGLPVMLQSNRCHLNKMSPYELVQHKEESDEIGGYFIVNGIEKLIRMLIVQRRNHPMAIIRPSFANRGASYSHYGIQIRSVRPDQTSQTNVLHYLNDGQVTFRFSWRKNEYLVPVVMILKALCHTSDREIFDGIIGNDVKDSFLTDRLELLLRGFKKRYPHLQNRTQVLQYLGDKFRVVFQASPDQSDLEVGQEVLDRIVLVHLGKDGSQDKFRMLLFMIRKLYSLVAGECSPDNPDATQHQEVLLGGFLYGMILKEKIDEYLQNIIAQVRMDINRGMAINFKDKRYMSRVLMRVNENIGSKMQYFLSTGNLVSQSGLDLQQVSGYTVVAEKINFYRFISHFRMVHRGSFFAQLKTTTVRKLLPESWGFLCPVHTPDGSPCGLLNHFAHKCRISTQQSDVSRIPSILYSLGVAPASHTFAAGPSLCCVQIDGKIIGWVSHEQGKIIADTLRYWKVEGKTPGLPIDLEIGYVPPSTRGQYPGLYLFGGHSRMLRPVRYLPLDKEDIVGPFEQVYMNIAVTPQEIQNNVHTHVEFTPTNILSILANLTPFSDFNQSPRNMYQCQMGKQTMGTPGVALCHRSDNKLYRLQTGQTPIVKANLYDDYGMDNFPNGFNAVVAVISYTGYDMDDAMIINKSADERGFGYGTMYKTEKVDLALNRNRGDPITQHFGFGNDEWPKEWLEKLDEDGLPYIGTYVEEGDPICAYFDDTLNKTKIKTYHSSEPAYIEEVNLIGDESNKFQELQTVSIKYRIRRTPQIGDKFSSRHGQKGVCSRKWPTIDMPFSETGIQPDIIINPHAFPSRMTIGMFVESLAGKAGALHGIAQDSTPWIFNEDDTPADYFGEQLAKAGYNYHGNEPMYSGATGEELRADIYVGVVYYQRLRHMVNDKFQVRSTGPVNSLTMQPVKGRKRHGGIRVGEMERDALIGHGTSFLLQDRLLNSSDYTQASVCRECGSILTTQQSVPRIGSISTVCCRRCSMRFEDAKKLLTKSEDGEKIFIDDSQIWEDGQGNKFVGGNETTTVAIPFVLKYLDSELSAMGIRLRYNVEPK

T2: RNA polymerase I subunit AC40 (Saccharomyces cerevisiae, UniProt P07703 1-335)
T2 sequence: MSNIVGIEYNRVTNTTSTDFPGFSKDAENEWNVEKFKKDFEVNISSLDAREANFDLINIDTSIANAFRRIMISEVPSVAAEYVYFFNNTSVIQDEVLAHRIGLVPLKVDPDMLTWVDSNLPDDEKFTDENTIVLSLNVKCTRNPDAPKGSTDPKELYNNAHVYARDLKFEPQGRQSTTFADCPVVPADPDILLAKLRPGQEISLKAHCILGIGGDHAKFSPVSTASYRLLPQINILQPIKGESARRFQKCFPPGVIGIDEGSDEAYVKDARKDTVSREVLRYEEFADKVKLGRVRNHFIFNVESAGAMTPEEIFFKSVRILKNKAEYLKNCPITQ

B1: RNA polymerase subunit Rpb5 (natural protein)
chain: MDQENERNISRLWRAFRTVKEMVKDRGYFITQEEVELPLEDFKAKYCDSMGRPQRKMMSFQANPTEESISKFPDMGSLWVEFCDEPSVGVKTMKTFVIHIQEKNFQTGIFVYQNNITPSAMKLVPSIPPATIETFNEAALVVNITHHELVPKHIRLSSDEKRELLKRYRLKESQLPRIQRADPVALYLGLKRGEVVKIIRKSETSGRYASYRICM
B2: RNA polymerase I subunit A49 (natural protein)
chain: MSVKRSVSEIEIESVQDQPSVAVGSFFKGFRAPSDTTFDLYKKKKSEKDEFVLHGENERLEYEGYTDSSSQASNQYVVGLFNPEKKSIQLYKAPVLVSKVVSKSSKNLRGPKIKSKSDTRPSALRNALGEAFGTKKAKKAIADLERNRIDSDKLTDSAIDIVDSVRTASKDLPTRAQLDEITSNDRPTPLANIDATDVEQIYPIESIIPKKELQFIRVSSILKEADKEKKLELFPYQNNSKYVAKKLDSLTQPSQMTKLQLLYYLSLLLGVYENRRVNNKTKLLERLNSPPEILVDGILSRFTVIKPGQFGRSKDRSYFIDPQNEDKILCYILAIIMHLDNFIVEITPLAHELNLKPSKVVSLFRVLGAIVKGATVAQAEAFGIPKSTAASYKIATMKVPFKLPEMTRRGRGPRR
B3: RNA polymerase I subunit A34.5 (natural protein)
chain: MSKLSKDYVSDSDSDDEVISNEFSIPDGFKKCKHLKNFPLNGDNKKKAKQQQVWLIKFPSNVDISKLKSLPVDFESSTTMTIDKHDYKIMDDTDIESSLTQDNLSNMTLLVPSESKESLKIASTAKDNAPLQFDKVFSVSETAKIPAIDYSKVRVPRKDVPKVEGLKLEHFATGYDAEDFHVAEEVKENKKEPKKRSHHDDEEESSEKKKKKKEKREKREKKDKKDKKKKHRD
B4: RNA polymerase I subunit A12.2 (natural protein)
chain: MSVVGSLIFCLDCGDLLENPNAVLGSNVECSQCKAIYPKSQFSNLKVVTTTADDAFPSSLRAKKSVVKTSLKKNELKDGATIKEKCPQCGNEEMNYHTLQLRSADEGATVFYTCTSCGYKFRTNN
B5: RNA polymerase I subunit A43 (natural protein)
chain: MSQVKRANENRETARFIKKHKKQVTNPIDEKNGTSNCIVRVPIALYVSLAPMYLENPLQGVMKQHLNPLVMKYNNKVGGVVLGYEGLKILDADPLSKEDTSEKLIKITPDTPFGFTWCHVNLYVWQPQVGDVLEGYIFIQSASHIGLLIHDAFNASIKKNNIPVDWTFVHNDVEEDADVINTDENNGNNNNEDNKDSNGGSNSLGKFSFGNRSLGHWVDSNGEPIDGKLRFTVRNVHTTGRVVSVDGTLISDADEEGNGYNSSRSQAESLPIVSNKKIVFDDEVSIENKESHKELDLPEVKEDNGSEIVYEENTSESNDGESSDSD
B6: RNA polymerase I subunit AC19 (natural protein)
chain: MTEDIEQKKTATEVTPQEPKHIQEEEEQDVDMTGDEEQEEEPDREKIKLLTQATSEDGTSASFQIVEEDHTLGNALRYVIMKNPDVEFCGYSIPHPSENLLNIRIQTYGETTAVDALQKGLKDLMDLCDVVESKFTEKIKSM

Holding throughout (assay): cross-linking
The target in experiment [1] is B2.
The target in experiment [2] is RNA polymerase I subunit A190 (Saccharomyces cerevisiae, UniProt P10964 1-1664).
In experiment [3] the target is T1, RNA polymerase I subunit A135.
For experiment [4], the target named is T2, RNA polymerase I subunit AC40.
Experiment [5] deals with B3.

RNA polymerase I subunit A190, sequence (P10964 whole entry): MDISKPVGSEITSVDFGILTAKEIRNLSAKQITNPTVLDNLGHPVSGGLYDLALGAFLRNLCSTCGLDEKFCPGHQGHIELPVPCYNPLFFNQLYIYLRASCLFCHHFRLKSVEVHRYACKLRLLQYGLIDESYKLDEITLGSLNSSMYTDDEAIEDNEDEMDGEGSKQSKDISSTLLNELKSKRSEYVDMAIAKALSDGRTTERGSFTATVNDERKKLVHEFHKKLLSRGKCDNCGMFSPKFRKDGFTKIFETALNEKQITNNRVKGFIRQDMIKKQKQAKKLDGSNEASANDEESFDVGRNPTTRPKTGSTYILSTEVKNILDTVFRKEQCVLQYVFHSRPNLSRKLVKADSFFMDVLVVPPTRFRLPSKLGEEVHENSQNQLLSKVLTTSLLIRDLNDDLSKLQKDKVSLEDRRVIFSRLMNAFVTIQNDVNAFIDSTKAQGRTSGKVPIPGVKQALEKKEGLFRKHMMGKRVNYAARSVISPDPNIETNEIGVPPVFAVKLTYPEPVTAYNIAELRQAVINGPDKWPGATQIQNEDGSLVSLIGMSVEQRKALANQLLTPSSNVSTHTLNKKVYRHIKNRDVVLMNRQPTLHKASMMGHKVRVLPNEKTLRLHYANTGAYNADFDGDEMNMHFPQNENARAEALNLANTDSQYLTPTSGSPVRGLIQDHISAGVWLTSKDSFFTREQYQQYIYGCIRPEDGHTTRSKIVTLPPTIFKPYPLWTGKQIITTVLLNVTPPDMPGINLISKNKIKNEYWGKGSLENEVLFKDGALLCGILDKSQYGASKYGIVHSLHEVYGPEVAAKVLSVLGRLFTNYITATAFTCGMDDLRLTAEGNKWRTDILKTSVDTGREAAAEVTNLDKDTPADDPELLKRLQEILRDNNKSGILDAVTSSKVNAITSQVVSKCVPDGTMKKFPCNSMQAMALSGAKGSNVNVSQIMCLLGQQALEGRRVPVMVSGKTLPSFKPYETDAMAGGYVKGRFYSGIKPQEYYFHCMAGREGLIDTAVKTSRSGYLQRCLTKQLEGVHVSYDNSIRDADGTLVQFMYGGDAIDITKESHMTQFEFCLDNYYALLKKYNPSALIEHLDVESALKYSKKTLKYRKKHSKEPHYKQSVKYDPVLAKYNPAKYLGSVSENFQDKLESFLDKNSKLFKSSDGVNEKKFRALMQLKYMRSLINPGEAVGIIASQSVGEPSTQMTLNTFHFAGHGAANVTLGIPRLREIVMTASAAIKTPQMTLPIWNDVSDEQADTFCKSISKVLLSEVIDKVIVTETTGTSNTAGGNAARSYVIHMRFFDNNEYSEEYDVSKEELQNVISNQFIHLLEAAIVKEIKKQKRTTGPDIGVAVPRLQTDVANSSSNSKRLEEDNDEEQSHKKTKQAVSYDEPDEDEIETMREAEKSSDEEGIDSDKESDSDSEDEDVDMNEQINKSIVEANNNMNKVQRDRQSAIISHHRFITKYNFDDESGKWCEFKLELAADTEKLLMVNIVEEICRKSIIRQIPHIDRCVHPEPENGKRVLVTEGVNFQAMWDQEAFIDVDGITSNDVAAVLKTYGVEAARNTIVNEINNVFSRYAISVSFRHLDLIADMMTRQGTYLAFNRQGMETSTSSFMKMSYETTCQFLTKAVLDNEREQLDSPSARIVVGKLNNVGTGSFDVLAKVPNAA

As for B1, the binding result in experiment [1] is listed as “binds”.

Regarding B2, the binding result in experiment [2] and in experiment [3] was “binds” in each case.

As for B3, the binding result in experiment [4], in experiment [1] and in experiment [3] was “binds” in each case.

Consider B4, for which the binding result in experiment [2] and in experiment [3] was “binds” throughout.

On to B5, for which the binding result in experiment [1] is “binds”.

In the case of B6, the binding result in experiment [5] is on record as “binds”.
